According to US20190248902A1 (published 2019):
Where a chain is given by its changes, count along the chain named.

T1: recombinant, soluble human ASGR-1 (human, UniProt P07306 62-291)
T1 construct: biotinylated in the binning assay; also called soluble huASGR-1; Soluble ASGR-1 (Amgen)
T1 sequence: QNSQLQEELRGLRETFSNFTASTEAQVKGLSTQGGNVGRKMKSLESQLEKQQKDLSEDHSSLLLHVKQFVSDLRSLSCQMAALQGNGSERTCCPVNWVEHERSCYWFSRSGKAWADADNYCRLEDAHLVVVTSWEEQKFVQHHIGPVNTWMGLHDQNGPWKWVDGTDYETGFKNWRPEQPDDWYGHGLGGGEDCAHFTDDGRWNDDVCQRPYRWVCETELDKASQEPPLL

B1: 32D6 (antibody, V domains shown)
VH: QVQLVESGGGVVQPGRSLRLSCAASGFTFSSYGMHWVRQAPGKGLEWVTVIWHDGSNAYYADSVKGRFTISRDNSKNTLYLQMNSLRAEDTAVYYCARENSSSYYFDYWGQGTLVTVSS
VL: DIQMTQSPSSLSTSVGDRVTITCRASQNIISYLNWYQQKPGKAPKLLMYVASRLQSGVPSRFSGSGSGTDFTLTISSLQAEDFATYYCQQSYSTPYTFGGGTKVAIK
notes: hybridoma mAb
B2: 5E5 (antibody, V domains shown)
VH: QVQLVESGGGVVQPGRSLRLSCAASGFTFSNYVMHWVRQAPGKGLEWVAVIWYDGSNKYYADSVKGRFTISRDNSKNTLYLQMNSLRAEDTAVYYCTREVYSSGWYDYGMDVWGQGTTVTVSS
VL: DIQMTQSPSSLSASVGDRVTITCRASQGIRNDLGWYQQKPGKAPKRLIYAASSLQSGVPSRFSGSGSGTEFTLTISSLQPEDFATYYCLQHYSYPRTFGQGTKVEVK
notes: hybridoma mAb
B3: 60E8 (antibody, V domains shown)
VH: QVQLQESGPGLVRPSATLSLTCTVSGGSISRSSYYWGWIRQPPGKGLEWIGSIYYSGSASYNPSLKSRVTISVDTSENQFSLRLSSVTAADTAVYYCARLDSGWSFDYWGQGTLVTVSS
VL: B2 VL with I21F, Y36F, Y92S, R96L, Q100G, V106I
notes: hybridoma mAb
B4: 29E2 (antibody, V domains shown)
VH: B2 VH with Y32C, F68I, T97A, V100E
VL: B2 VL with G28A, K39R, T72I, S93N, T97S, V104L, V106I
notes: hybridoma mAb
B5: 7G4 (antibody, V domains shown)
VH: B2 VH with S30N, N84T, T97A, V100K, G104N
VL: B2 VL with K39R, F83S, Q90H, H91Q, V106I
notes: hybridoma mAb
B6: 45B4 (antibody, V domains shown)
VH: B2 VH with N31D, Y32C, T97A, V100R, W105L
VL: B2 VL with I21F, N31D, V106I
notes: hybridoma mAb
B7: 64B12 (antibody, V domains shown)
VH: B3 VH with V2L, R13K, A16E, G27V, A59T, E77K, R83K
VL: DIQMTQSPSSLSASVGDRVTITCRASQDISNYLNWYQQKPGTAPNLLISDASILETGVPSTFSGSGSGTDFTFTISSLQPEDIATYYCQQSDNLPCSFGQGTKVEIK
notes: hybridoma mAb
B8: 65E9 (antibody, V domains shown)
VH: not shown
VL: SYELTQPPSVSVSPGQTASITCSGDKLGNKYDYWYQQKPGQSPVLVIYQDRKRPSGIPERFSGSNSGNTATLTISGTQAMDEADYYCQAWDNSTVVFGGGTKLTVL
notes: hybridoma mAb
B9: 52H1 (antibody, V domains shown)
VH: QVQLVESGGGVVQPGRSLRLSCAASGFTFSGYGMHWVRQAPGKGLEWVAVIWYDGSNKYYADSVKGRFTISRDNSKNTLYLQMNSLRAEDTAVYYCARDRVYCSSSSCSYYYYYYGMDVWGQGTTVTVSS
VL: B8 VL with S11F, C22S, N29D, D32V, Y33S
notes: hybridoma mAb
B10: 58G11 (antibody, V domains shown)
VH: EVQLVESGGGLVQPGGSLRLSCAASGFTFSSYSMNWVRQAPGKGLEWISYISTSSSTIFYADSVKGRFTISRDSAKNSLYLQMNSLRDEDTAVYYCARGDTAMVLYYYGMDVWGQGTTVTVSS
VL: B8 VL with N29D, D32A, Y33S, R51N, D91N, S93N, V96M
notes: hybridoma mAb
B11: 59F2 (antibody, V domains shown)
VH: EVQLVESGGGLVQPGGSLRLSCGASGFTFSSYSMNWVRQAPGKGLEWVSYISGSSNIIYYTDSVKGRFTISRDNAKNSLYLQMNSLRDEDTAVYYCARADTPMVLYFYGMDVWGQGTTVTVSS
VL: B8 VL with N29D, D32A, Y33S, K38R, R51N, S93N
notes: hybridoma mAb
B12: 60D2 (antibody, V domains shown)
VH: B11 VH with G53E, K76M
VL: B8 VL with D25N, N29D, D32A, Y33S, K38R, R51N, A79T, S93N
notes: hybridoma mAb
B13: 4B3 (antibody, V domains shown)
VH: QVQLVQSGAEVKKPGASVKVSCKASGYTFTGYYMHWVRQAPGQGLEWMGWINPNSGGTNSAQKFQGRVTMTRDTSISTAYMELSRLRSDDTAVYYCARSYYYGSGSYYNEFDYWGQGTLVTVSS
VL: B8 VL with G15R, A18V, N29D, D32A, Y33C, S93N, V96I
notes: hybridoma mAb
B14: 72B4 (antibody, V domains shown)
VH: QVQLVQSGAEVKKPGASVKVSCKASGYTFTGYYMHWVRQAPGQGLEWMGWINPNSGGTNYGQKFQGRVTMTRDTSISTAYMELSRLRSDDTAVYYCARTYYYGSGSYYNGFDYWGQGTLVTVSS
VL: B8 VL with N29D, D32A, Y33W, K38R, Q49E
notes: hybridoma mAb
B15: 29H8 (antibody, V domains shown)
VH: QVQLVQSGAEVQKPGASVKVSCKASGYTFTNYDINWVRQATGQGLEWMGWMNPNSGNTGYAQRFQGRVTMTRNTSISAAYMELSSLRSEDTAVYYCASSSGWYYFDYWGQGTLVTVSS
VL: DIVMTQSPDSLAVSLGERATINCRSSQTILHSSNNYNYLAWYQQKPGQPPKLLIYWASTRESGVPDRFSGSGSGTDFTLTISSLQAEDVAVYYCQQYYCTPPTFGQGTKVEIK
notes: hybridoma mAb
B16: 4A2 (antibody, V domains shown)
VH: B15 VH with A9T, Q12K, N52H, R63K, M70L, A78T
VL: DIVMTQSPDSLAVSLGERATINCKSSQSILHSSNNNNYLAWFQQKPGQPPKLLLYWASTRESGVPDRFSGSGSGTDFTLTISSLQPEDVAVYYCQQYYNTPVTFGPGTKVGIK
notes: hybridoma mAb
B17: 50G9 (antibody, V domains shown)
VH: QVQLVESGGGVVQPGRSLRLSCAASGFIFSSYGMHWVRQAPGKGLEWVAVISQDGIIRYYADSVKGRFTISRDNSKNTLYLQMNSLRAEDTAVYYCARDVKQWLVRTYGMDVWGQGTTVTVSS
VL: SYELTQPPSVSVSPGQTASITCSGDKLGDKYACWYQQKPGQSPVLVIYQDSKRPSGIPERFSGSNSGNTATLTISGTQARDEAEYYCQARNSRRGVFGGGTRLTVL
notes: hybridoma mAb
B18: 63A10 (antibody, V domains shown)
VH: EVQLVESGGGLVQPGGSLRLSCAASGFTFSSYSMNWVRQAPGKGLEWVSYISSSTSTIYYAASVKGRFTISRDNAKNSLYLQMNSLRDEDTAVYYCARDHRYYDSSGYYSDAFDIWGQGTMVTVSS
VL: NFMLTQPHSVSESPGKTVTISCTRSNGSIVSNYVQWYQQRPGSSPTTVIYEDKRRPSGVPDRFSGSIDSSSNSASLTISGLKTEDEADYYCQSYDSINVVFGGGTKLTVL
notes: hybridoma mAb
B19: 63G7 (antibody, V domains shown)
VH: B18 VH
VL: B18 VL with V48M, K53S, Y90S, S96G
notes: hybridoma mAb

Molecular target: T1, recombinant, soluble human ASGR-1
Test: Octet BLI dissociation, pH 5.6 plus calcium
Protocol: (§1) The relative dissociation of ASGR-1 from antibodies was measured using a label-free assay on an OctetHTX instrument (Fortebio). Antibody samples were captured on anti-HuFc kinetic biosensors (ForteBio cat #18-5064) at 5 ug/mL in assay buffer (10 mM Tris, 0.1% Triton, 150 mM NaCl, 1 mg/mL BSA, 1 mM CaCl2, pH7.4) for three minutes. A one minute baseline stabilization step was performed in assay buffer. Soluble ASGR-1 (Amgen) at 6 ug/ml in assay buffer was added and association to the antibodies was monitored for two minutes. Subsequent dissociation of ASGR-1 from the antibodies was performed by incubating the ASGR-1-mAb complexes for 10 minutes under each of the following conditions:
(§2) The binding signal at the end of the 2 minute association phase for each dissociation experiment was set to 100% and used to represent the maximal level of ASGR-1 binding. After 1 minute of dissociation, the percentage of ASGR-1 remaining bound was calculated. The lower the percent remaining at a given time point indicates increased levels of dissociation in response to the test conditions (ie. different pH and/or calcium concentrations). The change in the percentage of ASGR-1 remaining bound in response to each test condition relative to the percent remaining in the control conditions (ie. pH 7.4+calcium) was determined. Cut-offs for an antibody to be categorized as being sensitive to a particular condition were set to >10% (ie. if >10% of the ASGR-1 dissociates from the antibody under a particular test condition compared to control condition, it was deemed sensitive to that condition). The analysis was done using the 1 minute dissociation time point (except for mAb 149A1 which was binned based on the 4 minute dissociation time point). Using this analysis, the ASGR-1-binding, receptor-ligand blocking antibodies were separated into groups according to their dissociation profiles in response to pH and calcium (Table 7.3). Antibodies belonging to each category were observed.

% Change Compared to pH 7.4 + Calcium [%]	Binder
33	B1
18	B2
11	B3
25	B4
1	B5
10	B6
6	B7
30	B8
-1	B9
12	B10
52	B11
42	B12
33	B13
26	B14
-2	B15
-3	B16
62	B17
3	B18
15	B19

Molecular target: T1, recombinant, soluble human ASGR-1
Test: Octet BLI dissociation, pH 5.6 minus calcium
Protocol: as §1, §2

% Change Compared to pH 7.4 + Calcium [%]	Binder
55	B1
42	B2
18	B3
38	B4
7	B5
23	B6
7	B7
35	B8
10	B9
51	B10
74	B11
49	B12
45	B13
43	B14
2	B15
1	B16
44	B17
47	B18
59	B19

Molecular target: T1, recombinant, soluble human ASGR-1
Test: Octet BLI dissociation, pH 7.4 minus calcium
Protocol: as §1, §2

% Change Compared to pH 7.4 + Calcium [%]	Binder
26	B1
7	B2
3	B3
5	B4
2	B5
4	B6
6	B7
22	B8
5	B9
38	B10
48	B11
20	B12
12	B13
32	B14
2	B15
1	B16
37	B17
8	B18
20	B19
